Data taken from patent publication US20260284241A1, “DOSAGE REGIMEN FOR SHORT-LIVED RADIOISOTOPE” (AdvanCell Pty Limited, priority 2023, published 2026).

Test system: metastatic castration-resistant prostate cancer
Test: 212Pb SPECT/CT imaging (biodistribution) in a patient with metastatic castration-resistant prostate cancer
Type: in vivo, human
Settings: 60 MBq
Protocol: To gauge the biodistribution and inform patient tolerability of a ^212Pb radiopharmaceutical comprising an acetamide-based chelator, 60 MBq of ^212Pb-ADVC001 was administered to a person with metastatic castration-resistant prostate cancer. SPECT/CT imaging was performed at 1.5, 5, 20, and 28 h following infusion. […] FIG. 3B depicts sagittal and coronal images at 1.5 h after injection (p.i.). Further details are published in Griffths et al., Journal of Nuclear Medicine, 2024, 65 (7), the entire contents of which are hereby incorporated herein by reference.

HO-Glu-CO-Lys[SubA-D-Lys-D-Phe-D-Tyr(3I)-(Pent-^212Pb-DO3AM)]-OH [^212Pb-ADVC001]
kidney clearance (patient with mCRPC, SPECT/CT (FIG. 3A)): rapid kidney clearance
tumour uptake on 212Pb SPECT/CT images (person with mCRPC, SPECT/CT at 1.5, 5, 20 and 28 h following infusion): rapid tumour uptake
